Here are results for 31 molecules from article PMC9172573, “Covalent labeling of a chromatin reader domain using proximity-reactive cyclic peptides†” (Chemical Science, 2022).

Data set [1] has as its target His6-MBP-PHD3 (PHD3 domain of histone demethylase KDM5A) (UniProt P29375). Briefly: fluorescence polarisation; competition: recombinant His6-MBP-PHD3 incubated with the 10mer H3K4me3 tracer (C-terminal fluorescent label), then varying concentrations of the competing peptide; Ki.
Data set [2] concerns the target recombinant His6-MBP-PHD3 (PHD3 domain of KDM5A) (Homo sapiens, UniProt P29375).
For data set [3] the following is noted: oxyguanidino / guanidino side-chain group; cited from earlier work.
The subject of the next data set is trypsin. The experiment in a line: trypsin stability assay. Type of data set: in vitro ADME. The following applies: peptide and trypsin 1:1 w/w, 1x PBS, RT, HPLC. On the procedure: Trypsin stability assay: Peptide and trypsin (1:1 w/w) were mixed in 1x PBS buffer and the resulting mixture was incubated at RT. Proteolysis reactions at a given time point was quenched by adding HCl. The proteolysis process was monitored by subjecting the quenched mixture onto r everse-phase HPLC column monitoring at 2 14 nm [H2O (A):MeCN (B); 5% to 100% solvent B over 23 min].
Fig. S2a: Chromatograms of WT H3K4me3 hexapeptide ( 1) before and after incubation with trypsin ( t = < 5 min).
(1 picture or pasted object on this page, not shown here)

For data set [4], the target named is His6-MBP-PHD3 (PHD3 domain of histone demethylase KDM5A) (UniProt P29375). Briefly: FP.
Data set [5] has as its target T1, His6-MBP-PHD3 (PHD3 domain of histone demethylase KDM5A) (UniProt P29375 1609-1659).
T1 chain: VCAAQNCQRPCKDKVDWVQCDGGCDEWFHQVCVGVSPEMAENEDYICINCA
Briefly: FP.

The target of a further data set is T2, PHD3 K1620A (UniProt P29375 1609-1659, K1620A).
T2 sequence: T1 chain with K12A
Briefly: FP.

For data set [6], the target named is T1, His6-MBP-PHD3 (PHD3 domain of histone …). Briefly: FP.
For the next data set, the target named is T3, PHD3 K1622A (UniProt P29375 1609-1659, K1622A).
T3 sequence: T1 chain with K14A
Briefly: FP.

Data set [7] has as its target T4, PHD3 double mutant K1620A/K1622A (UniProt P29375 1609-1659, K1620A | K1622A).
T4 sequence: T1 chain with K12A, K14A
Briefly: FP.

Data set [8] has as its target T1, His6-MBP-PHD3 (PHD3 domain of histone …). Briefly: FP.
The target of data set [9] is T5, His6-MBP-PHD3 (PHD3 domain of histone demethylase KDM5A) (UniProt P29375 1609-1659).
T5 construct: KDM5A, third (C-terminal) PHD finger, PHD3; holds K1620, K1622, W1625, W1635; also called recombinant His6-MBP-PHD3 protein; KDM5A-PHD3; source: recombinant; not shown: His6, N-terminal, kept; MBP, N-terminal, kept
T5 sequence: T1 chain
The experiment in a line: fluorescence polarisation; competition: recombinant His6-MBP-PHD3 incubated with the 10mer H3K4me3 tracer (C-terminal fluorescent label), then varying concentrations of the competing peptide; Ki. As to conditions: both partners purified. For orientation: In fluorescence polarisation assays a small probe gives low polarisation when free and higher when bound to something large.

Residue numbers refer to the chain shown, from its start. In names and notes the source's numbering stands. Square brackets hold non-standard residues; d marks the D form. Ends that are not written are not given here. Peptide text beside a SMILES is read from it. Lys(Me3) = C[N+](C)(C)CCCC[C@H](N)C(=O)O; fluorescent label = not defined here; Arg(Me) = CNC(=N)NCCC[C@H](N)C(=O)O; Aib = CC(C)(N)C(=O)O; Me3 = trimethyl

For orientation: Ki means the dissociation constant of the complex between target and ligand, obtained from inhibition or displacement. Consider “H3 6mer peptide 14 (K4me3 replaced with homo-arginine) (from UniProt P68431 2-7)”, for which the Ki in data set [1] came out at 690 nM.

`C[C@H](N)C(=O)N[C@@H](CCCNC(=N)N)C(=O)N[C@H](C(=O)N[C@@H](CCCC[N+](C)(C)C)C(=O)N[C@@H](CCC(N)=O)C(=O)N[C@@H](C)C(=O)N[C@@H](C)C(=O)N[C@@H](CCCNC(=N)N)C(=O)N[C@@H](CCCCN)C(=O)N[C@@H](CO)C(N)=O)[C@@H](C)O` [T6A]: the inhibition constant (Ki) in [2] stood at 150 ± 47 nM.

A word on the pKa: it is the pH at which an ionisable group is half protonated. For the molecule `N=C(N)NCCC[C@H](N)C(=O)O` [arginine], the pKa in data set [3] is approximately 12.48.

As to `N=C(N)NOCC[C@H](N)C(=O)O` [canavanine], in data set [3], the pKa is recorded as 7.01.

Consider “H3K4me3 6mer peptide 8 (R2 replaced with canavanine) (from UniProt P68431 2-7)”, for which the Ki in data set [1] worked out at 2300 nM.

As for “H3K4me3 6mer peptide 9 (R2 replaced with homo-arginine) (from UniProt P68431 2-7)”, the inhibition constant Ki in data set [1] came to 740 nM.

As to `C[C@@H](O)[C@H](NC(=O)[C@H](CCC(N)=O)NC(=O)[C@H](CCCC[N+](C)(C)C)NC(=O)[C@@H](NC(=O)[C@H](CCCNC(=N)N)NC(=O)[C@@H]1CCCN1)[C@@H](C)O)C(N)=O` [compound 6] (H-PRT[Lys(Me3)]QT-NH2), in data set [2], the Ki came to 2700 ± 640 nM.

Turning to `NC(N)=NCCCC[C@H](N)C(=O)O` [homo-arginine], the pKa in data set [3] is approximately 12.48.

With `C[C@H](N)C(=O)N[C@@H](CCCNC(=N)N)C(=O)N[C@H](C(=O)N[C@@H](CCCC[N+](C)(C)C)C(=O)N[C@@H](CCC(N)=O)C(=O)N[C@H](C(N)=O)[C@@H](C)O)[C@@H](C)O` [compound 1, ARTK(me3)QT] (H-ART[Lys(Me3)]QT-NH2), the tryptic stability entry in the data set on trypsin is listed as “highly susceptible to tryptic digestion”.

Molecule “H3K4me3 6mer peptide 4 (A1 sidechain modified) (from UniProt P68431 2-7)” displayed a Ki in data set [4] of 12000 nM.

In the case of `C[C@@H](O)[C@H](NC(=O)[C@H](CCC(N)=O)NC(=O)[C@H](CCCC[N+](C)(C)C)NC(=O)[C@@H](NC(=O)[C@H](CCCNC(=N)N)NC(=O)[C@@H](N)CO)[C@@H](C)O)C(N)=O` [compound 5] (H-SRT[Lys(Me3)]QT-NH2), the Ki in data set [2] was 1700 ± 300 nM.

In data set [5], ART[Lys(Me3)]QTARKA [S10A] registered a Ki of 12 nM.

ART[Lys(Me3)]QTA (not fully specified) [7mer]: the affinity in [5], expressed as Ki, was 43 nM.

What is called Kd is a measure of binding affinity in units of concentration. Read a high Kd as a looser complex. In the case of ART[Lys(Me3)]QTARKS-{fluorescent label} (reading uncertain) [10mer H3K4me3 tracer containing a C-terminal fluorescent label], the Kd was found to be 58 nM in the data set with PHD3 K1620A, 83 nM in [6], 160 nM with PHD3 K1622A and 71 nM in data set [7].

In turn, AAT[Lys(Me3)]QTARKS [H3K4me3 10mer peptide, R2 replaced with Ala] gave a Ki in data set [5] of 560 nM.

ART[Lys(Me3)] (not fully specified) [4mer]: the Ki in data set [5] amounted to 2700 nM.

On to ART[Lys(Me3)]QTAAKS [R8A], for which the affinity in [5] corresponds to a Ki of 69 nM.

The molecule ART[Lys(Me3)]YT [H3K4me3 6mer peptide 15 (Q5 replaced with tyrosine)] registered a Ki in data set [8] of 440 nM.

On to A[Arg(Me)]T[Lys(Me3)]QT [H3K4me3 6mer peptide 10 (R2 guanidino group monomethylated)], for which the Ki in data set [8] is 220 nM.

Take ART[Lys(Me3)]QTARK (not fully specified) [9mer]: in data set [5], the Ki was determined as 15 nM.

With ART[Lys(Me3)]ATARKS [H3K4me3 10mer peptide Q5A], the affinity in [5], expressed as Ki, was 59 nM.

In turn, ARA[Lys(Me3)]QTARKS [H3K4me3 10mer peptide, T3 replaced with Ala] came in with a Ki in data set [5] of 650 nM.

On to ARTK(Me3)QT [hexapeptide ARTK(me3)QT (1)], for which the Ki in data set [9] came out at 130 nM.

B1: sulfone cyclopeptide C-20c (peptide, UniProt P68431 2-7, looked up)
peptide: ARTKQC
modifications: not fully specified; Cys at 6; ε-amino group of dimethyllysine 4 stapled to the Cys6 sulfur with 1,2-bis(bromomethyl)benzene, thioether oxidised to the sulfone
notes: Full-length, cleaved form of intermediate C-20; also called series C; source: synthetic peptide, Fmoc-SPPS on Rink amide resin
For the molecule B1, in data set [9], the “fold decrease in binding affinity (against the thioether C-18c, as read)” value was 5 fold.

Regarding ARTAQTARKS [H3 10mer peptide, K4 replaced with Ala], the Ki in [5] is 30000 nM.

In turn, Me-ART[Lys(Me3)]QT [N-terminally methylated H3K4me3 6mer peptide (3)] yielded a Ki in data set [8] of 150 nM.

Ac-ART[Lys(Me3)]QT [N-terminally acetylated H3K4me3 6mer peptide (2)] returned a Ki in data set [8] of 76000 nM.

For the molecule [Aib]RT[Lys(Me3)]QT [2-aminoisobutyric acid-containing peptide 7], in data set [8], affinity was put at a Ki of 310 nM.

As to ART[Lys(Me3)]QTAR (not fully specified) [8mer], in data set [5], the Ki turned out to be 54 nM.

ARV[Lys(Me3)]QT [H3K4me3 6mer peptide 13 (T3V)] gave a Ki in [8] of 240 nM.

ART[Lys(Me3)]QTARAS [K9A] came in with a Ki in data set [5] of 28 nM.
